Data published in patent publication US20150368329A1 (ONCOMED PHARMACEUTICALS, published 2015).
Changes are numbered by the printed parent chain. Each block holds one binder with its values, some of them ahead of it.

What was measured:
[1] = biological target: VEGF (ATGEN, South Korea) coated on ELISA plates (UniProt P15692-4 27-191, limits assumed); assay: bridging ELISA: the signal needs binding to both coated VEGF and biotin-DLL4-hFc (2 ug/ml); antibody concentration varied
Method: (§1) FIG. 5. Bispecific antibody ELISA. Bispecific antibodies 219R45-MB-21M18, 219R45-MB-21R79, 219R45-MB-21R75, and 219R45-MB-21R83 were diluted in blocking buffer (lx PBS, 0.1% gelatin, 0.1% Polysorbate-20, pH 7.4) containing 2 μg/ml biotin-DLL4-hFc. 219R45-MB-21M18 (open circles), 219R45-MB-21R79 (open squares), 219R45-MB-21R75 (open triangles), and 219R45-MB-21R83 (open diamonds) in comparison to a reference anti-VEGF/anti-DLL4 bispecific antibody (solid circles) is shown. The antibodies were serially diluted 3-fold from 500 ng/ml to 0.008 ng/ml. The antibody samples were incubated for 2 hours in blocking buffer containing the biotin-DLL4-hFc. After incubation, the antibody samples were transferred to a VEGF-coated assay plate (100 ul/well) and incubated for 2 hours. Streptavidin-HRP was added to each well and incubated for 1 hr. TMB substrate was added to the wells with a 10 minute color development and the reaction was stopped with 2M sulfuric acid. Absorbance was read at 450-650 nm and the data analyzed using the 4-parameter fit within the Softmax Pro analysis program.
(§2) VEGF (ATGEN, South Korea) was coated onto Nunc maxisorb plates at 2ug/ml (100 μl/well) and incubated overnight at 2-8° C. Bispecific antibodies 219R45-MB-21M18, 219R45-MB-21R79, 219R45-MB-21R75, and 219R45-MB-21RS3 were diluted in blocking buffer (1×PBS, 0.1% gelatin, 0.1% Polysorbate-20, pH 7.4) containing 2 μg/ml biotin-DLL4-hFc. The antibodies were serially diluted 3-fold from 500 ng/ml to 0.008 ng/ml. The antibody samples were incubated for 2 hours in blocking buffer containing the biotin-DLL4-hFc. After incubation, the antibody samples were transferred to the VEGF-coated assay plate (100 μl/well) and incubated for 2 hours. Streptavidin-HRP (Jackson ImmunoResearch, West Grove, Pa.) was added to each well and incubated for 1 hr. TMB substrate was added to the wells with a 10 minute color development and the reaction was stopped with 2M sulfuric acid. Absorbance was read at 450-650 nm and the data analyzed using the 4-parameter fit within the Softmax Pro analysis program (Molecular Devices, Sunnyvale, Calif.).

[2] = biological target: T1, biotin-DLL4-hFc (UniProt Q9NR61 27-522, limits assumed, biotinylated); assay: as above
T1 construct: not shown: human Fc ('hFc')
Method: as §1, §2

[3] = biological target: recombinant mouse VEGF165 (mouse) (UniProt Q00731); assay: SPR (Biacore 2000); biotinylated VEGF165 on streptavidin chip, antibody injected 100-0.78 nM

VEGF (ATGEN, South Korea) coated on ELISA plates, sequence (P15692 other isoform, or with tags, fused parts or gaps limits assumed): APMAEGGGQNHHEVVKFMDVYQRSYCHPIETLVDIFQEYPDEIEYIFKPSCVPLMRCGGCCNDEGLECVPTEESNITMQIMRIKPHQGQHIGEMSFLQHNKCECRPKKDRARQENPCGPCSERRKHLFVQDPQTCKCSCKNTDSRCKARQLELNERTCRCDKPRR
T1 sequence (Q9NR61 27-522 limits assumed): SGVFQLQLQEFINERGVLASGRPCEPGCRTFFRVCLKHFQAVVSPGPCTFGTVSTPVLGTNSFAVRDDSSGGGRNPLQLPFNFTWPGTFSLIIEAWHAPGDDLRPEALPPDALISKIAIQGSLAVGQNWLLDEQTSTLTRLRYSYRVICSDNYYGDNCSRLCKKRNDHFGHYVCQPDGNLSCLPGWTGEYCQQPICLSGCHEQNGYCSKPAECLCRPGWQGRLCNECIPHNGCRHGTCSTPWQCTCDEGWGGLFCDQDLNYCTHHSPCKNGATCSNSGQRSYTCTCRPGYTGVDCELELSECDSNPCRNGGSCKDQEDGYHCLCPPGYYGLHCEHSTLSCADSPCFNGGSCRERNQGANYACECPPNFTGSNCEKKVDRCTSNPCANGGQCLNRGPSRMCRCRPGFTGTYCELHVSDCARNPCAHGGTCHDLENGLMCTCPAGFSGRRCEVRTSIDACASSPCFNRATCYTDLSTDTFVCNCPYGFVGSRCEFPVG

B1: anti-VEGF/anti-DLL4 bispecific antibody 219R45-MB-21M18 (bispecific antibody, human IgG2)
heavy 1: QVQLVQSGAEVKKPGASVKVSCKASGYTFTNYWMHWVRQAPGQGLEWMGDINPSNGRTSYKEKFKRRVTLSVDKSSSTAYMELSSLRSEDTAVYFCTIHYDDKYYPLMDYWGQGTLVTVSSASTKGPSVFPLAPCSRSTSESTAALGCLVKDYFPEPVTVSWNSGALTSGVHTFPAVLQSSGLYSLSSVVTVPSSNFGTQTYTCNVDHKPSNTKVDKTVERKCCVECPPCPAPPVAGPSVFLFPPKPKDTLMISRTPEVTCVVVDVSHEDPEVQFNWYVDGVEVHNAKTKPREEQFNSTFRVVSVLTVVHQDWLNGKEYKCKVSNKGLPAPIEKTISKTKGQPREPQVYTLPPSREKMTKNQVSLTCLVKGFYPSDIAVEWESNGQPENNYKTTPPMLKSDGSFFLYSKLTVDKSRWQQGNVFSCSVMHEALHNHYTQKSLSLSPGK
heavy 2: QVQLVQSGAEVKKPGASVKISCKASGYSFTAYYIHWVKQAPGQGLEWIGYISSYNGATNYNQKFKGRVTFTTDTSTSTAYMELRSLRSDDTAVYYCARDYDYDVGMDYWGQGTLVTVSSASTKGPSVFPLAPCSRSTSESTAALGCLVKDYFPEPVTVSWNSGALTSGVHTFPAVLQSSGLYSLSSVVTVPSSNFGTQTYTCNVDHKPSNTKVDKTVERKCCVECPPCPAPPVAGPSVFLFPPKPKDTLMISRTPEVTCVVVDVSHEDPEVQFNWYVDGVEVHNAKTKPREEQFNSTFRVVSVLTVVHQDWLNGKEYKCKVSNKGLPAPIEKTISKTKGQPREPQVYTLPPSREEMTKNQVSLTCLVEGFYPSDIAVEWESNGQPENNYKTTPPMLDSDGSFFLYSELTVDKSRWQQGNVFSCSVMHEALHNHYTQKSLSLSPGK
light: DIVMTQSPDSLAVSLGERATISCRASESVDNYGISFMKWFQQKPGQPPKLLIYAASNQGSGVPDRFSGSGSGTDFTLTISSLQAEDVAVYYCQQSKEVPWTFGGGTKVEIKRTVAAPSVIFPPSDEQLKSGTASVVCLLNNFYPREAKVQWKVDNALQSGNSQESVTEQDSKDSTYSLSSTLTLSKADYEKHKVYACEVTHQGLSSPVTKSFNRGEC
EC50 (read off the curve) [1]: ~4 ng/mL | EC50 (read off the curve) [2]: ~4 ng/mL | Kd [3]: 25.5 nM

B4: anti-VEGF antibody 219R45 (parental, IgG format) (antibody, V domains shown)
VH: QVQLVQSGAEVKKPGASVKVSCKASGYTFTNYWMHWVRQAPGQGLEWMGDINPSNGRTSYKEKFKRRVTLSVDKSSSTAYMELSSLRSEDTAVYFCTIHYDDKYYPLMDYWGQGTLVTVSS
VL: DIVMTQSPDSLAVSLGERATISCRASESVDNYGISFMKWFQQKPGQPPKLLIYAASNQGSGVPDRFSGSGSGTDFTLTISSLQAEDVAVYYCQQSKEVPWTFGGGTKVEIKR
Kd [3]: 22.9 nM

Other lines, results leading:

Kd [3]: 12.5 nM
B2: anti-VEGF/anti-DLL4 bispecific antibody 219R45-MB-21R79 (bispecific antibody, human IgG2)
heavy 1: B1 heavy 1
heavy 2: B1 heavy 2 with S52A, S53N, G56R
light: B1 light

EC50 (read off the curve) [1]: ~0.7 ng/mL | EC50 (read off the curve) [2]: ~0.7 ng/mL
B3: anti-VEGF/anti-DLL4 bispecific antibody 219R45-MB-21R75 (bispecific antibody, human IgG2)
heavy 1: B1 heavy 1
heavy 2: B1 heavy 2 with S52A, S53G, N55K, G56D
light: B1 light
notes: Monovalent/bispecific IgG2 heterodimer
